Results reported in the supplement of paper PMC10567573.
± gives the standard deviation.

Assay: protein stability index of a GFP-peptide fusion (GPS, HEK-293T) (PSI 1-6); higher = more stable
[1] = treatment: DMSO, c terminus: a fixed tail appended
[2] = treatment: MLN4924 1 uM, 8 h, c terminus: a fixed tail appended
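Also: 24-mer peptide tiles fused after GFP, lentivirally expressed, FACS-sorted into six equal bins by GFP/DsRed ratio, decoded by Illumina sequencing, PSI is the read-weighted mean bin number.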

Sequence | protein stability index (treatment: DMSO, c terminus: native) | protein stability index (treatment: MLN4924 1 uM, 8 h, c terminus: native) | protein stability index [1] | protein stability index [2]
VPSAVRCLQKRGSATSSSNTSLT [FSD1] | 4.34 ± 0.13 | 4.43 ± 0.082 | – | –
HVINQGMAMYWGTSRWSSMEIMEA [KCNAB2] | – | – | 2.67 ± 0.53 | 2.42 ± 0.21
SLAIFSEELDGLCFKGELPLRAVH [PLEKHN1] | – | – | 2.42 ± 0.13 | 2.46 ± 0.43
LIKPSRVVAILAAACLLQLDGLIQ [GMCL1] | – | – | 3.11 ± 0.32 | 2.89 ± 0.27
SSFLSFAELFSYVLQDRAAKGSLG [FEM1A] | – | – | 2.58 ± 0.35 | 2.55 ± 0.81
MKGFSFKEDTLLLIAEVMGEDIPE [C8orf76] | – | – | 2.09 ± 0.11 | 2.21 ± 0.24
FRQMATALAHCHQHGLVLRDLKLC [TRIB3] | – | – | 2.21 ± 0.38 | 2.03 ± 0.3
EDQGRTRKRKQSGHSPARAGKQRM [DDIT3] | – | – | 4.96 ± 0.27 | 4.96 ± 0.089
SHDPQSSRGSRRRRRQRSEKKKAH [KCNA4] | – | – | 5.38 ± 0.53 | 5.38 ± 0.23
CGTPEYLAPEVIQSKGHGRAVDWW [PRKX] | – | – | 2.72 ± 0.54 | 2.45 ± 0.15
LRCRKEFYQLVWSALPFITYLENK [POP5] | – | – | 2.41 ± 0.9 | 2.07 ± 0.17
NTTVIPNGSMAMGTVPGQAPRLAV [LYSMD4] | – | – | 3.69 ± 0.32 | 3.5 ± 0.23
LVLKIMSGTFAPISDRYSPELRQL [NEK8] | – | – | 2.9 ± 0.6 | 2.69 ± 0.5
KLSARDHQKLEREARICRLLKHSN [CAMK2B] | – | – | 3.16 ± 0.47 | 3.52 ± 0.17
CPVWDIFDSDWYTSRNLIGGADII [RHOBTB3] | – | – | 3.26 ± 0.5 | 3.55 ± 0.26
AVRKLKFARHIKKSEGQKIPKVEL [GULP1] | – | – | 3.1 ± 0.091 | 3.13 ± 0.21
CRKWNQMMYSAELWRYRTITFSGR [FBXO39] | – | – | 2.41 ± 0.28 | 2.15 ± 0.37
PKRRMRYFDPLRNEYFFDRNRPSF [KCNA3] | – | – | 2.37 ± 0.26 | 2.6 ± 0.65
CRVPNSGKDEIEAAVKAAREAFPS [ALDH8A1] | – | – | 4.65 ± 0.27 | 4.54 ± 0.36
EEILTLFCGAPPVTPIIVLSIINF [PHTF1] | – | – | 2.84 ± 0.26 | 2.97 ± 0.51
SVSVWDLAAPSLHVKEQLPCAGLN [TLE6] | – | – | 2.91 ± 0.2 | 3.08 ± 0.3
VFQEMLLHKFPYRMVPALPPKRML [SNX8] | – | – | 2.12 ± 0.54 | 2.13 ± 0.22

Sequence | protein stability index (treatment: DMSO, c terminus: native) | protein stability index (treatment: MLN4924 1 uM, 8 h, c terminus: native) | protein stability index [1] | protein stability index [2]
GDRPRWQRLLGEDKFQWLAGLAPP [ANKRD9] | – | – | 2.85 ± 0.35 | 2.7 ± 0.3
RGEVPWSPELGRPHDRSQGDWAPP [ZNF263] | – | – | 4 ± 0.19 | 4.12 ± 0.35
FASGGFQVKLYDIEQQQIRNALEN [CRYL1] | – | – | 2.56 ± 0.28 | 2.95 ± 0.83
GLRLCRPKAKAKAKAKAKDQTKAQ [RPL29] | – | – | 3.91 ± 0.23 | 4.16 ± 0.34
QITVKALPKPPGTPVVTESTATSI [PTPRD] | – | – | 4.62 ± 0.29 | 4.61 ± 0.091
RLLGTAGTEEKKKLIRDFDEKQQE [VTI1B] | – | – | 5.06 ± 0.15 | 5.11 ± 0.33
SVNSDCETYMSADDLRINLWHLAI [PPP2R2C] | – | – | 2.52 ± 0.54 | 2.29 ± 0.21
EVRLVQKKDTGHIYAMKILRKSDM [STK38L] | – | – | 2.65 ± 0.22 | 2.45 ± 0.29
RGAQGILLVYDITNRWSFDGIDRW [RAB40C] | – | – | 2.93 ± 0.91 | 2.79 ± 0.42
EYAGSNTYEEAAAYIQCQFEDLNK [GNAI1] | – | – | 3.95 ± 0.37 | 4.12 ± 0.5
PEGVNKLKISPVTLKEAYVQKLVK [TENT5C] | – | – | 2.94 ± 0.35 | 2.93 ± 0.41
VNHYSEVADGLCCVLTTPCLTQST [SLA] | – | – | 2.77 ± 0.27 | 2.53 ± 0.38
LWLRPETHTKEQILELVVLEQFVA [ZNF24] | – | – | 2.26 ± 0.61 | 2.35 ± 0.45
EADYEDDSKIAFLMQLQDIQYLTE [IQUB] | – | – | 3.3 ± 0.2 | 3.38 ± 0.57
VFPGARLLTIGDANGEIQRHAEQQ [CARM1] | – | – | 4.64 ± 0.16 | 4.23 ± 0.2
PIIVVPDPPSSSEECPAHLLEDPL [RHOBTB2] | – | – | 5.2 ± 0.1 | 4.81 ± 0.3
IFAQGAPRSSLAESFFVDYEENEG [ADAMTSL2] | – | – | 4.05 ± 0.067 | 4.98 ± 0.26
GNAHYQRADFVLAANSYDLAIKAI [FKBP8] | – | – | 2.5 ± 0.079 | 2.43 ± 0.33
LDVWLSGGNDLCVWNRKLDLLCKT [WDR41] | – | – | 2.28 ± 0.35 | 2.19 ± 0.31
LWELCHLWLRPEVHTKEQILELLV [ZNF396] | – | – | 2.22 ± 0.36 | 2.31 ± 0.072
LVCHVMMGNLVMFRKDSVLNILIQ [INTS3] | – | – | 3.25 ± 0.47 | 3.33 ± 0.51
YGPVEVISHWHPNITINIVDDHTP [CLPTM1] | – | – | 2.41 ± 0.23 | 2.54 ± 0.17
